How the values were obtained:
[1] = test system: RNA molecular beacon and Target RNA; test: RNA annealing kinetics (molecular beacon and Target RNAs), stopped-flow fluorescence; format: biochemical; settings: 30 °C
Protocol: (§1) Figure 2. CTD and RNA occupy the same rim binding site. […] The CTD linker is shown in purple, the acidic tip in red and the N-terminal FITC as a yellow star. Hfq core is shown in cyan, with basic rim patches in dark blue. […] (C) Reaction scheme for annealing an RNA molecular beacon to a target RNA (open bar) ([Hopkins et al., 2011]; [Panja et al., 2015]). (D) Progress curves for annealing 50 nM molecular beacon and 100 nM Target by 50 nM Hfq65 hexamer at 30°C, measured by stopped-flow fluorescence. See Figure 2—figure supplement 3 for further data. (E) Contribution of core residues to CTD binding. Interaction energy (Expected Energetic Contribution; EEC) in silico for a core residue in the Rosetta models (solid symbols and solid line; adjusted R^2 = 0.77) or the average annealing rates for Target and Target-A18 relative to Hfq65 (open symbols and dashed line; adjusted R^2 = 0.94) versus experimental CTD binding energy (∆∆G°) for each Hfq65 variant. The binding energy, ∆∆G° = –RTln(Kd^MUT/Kd), reflects the perturbation to CTD binding by a mutation in Hfq65. The interaction energy in silico or EEC is defined as the average energy of a tail–core interaction multiplied by the average number of tail–core interactions per model (Figure 1B, top and Equation 3). The relative annealing rate for Hfq65 variants, krel = kobs^MUT/kobs^WT, is <1 if the mutated residue is important for RNA annealing. Figure 2—figure supplement 1. SDS-PAGE of purified Hfq variants. […] Annealing of 100 nM Target RNA to 50 nM beacon RNA by Hfq65 and Hfq65 variants was measured by stopped flow fluorescence at 30°C in 1 × TNK buffer. […] The change in fluorescence emission intensity was normalized to the maximum fluorescence within an experiment. […]
To determine how much core residues that bind the CTD contribute to Hfq’s RNA annealing activity, we compared the effect of rim mutations on the rate of base pairing between an RNA molecular beacon and the 16 nt Target RNA by stopped-flow fluorescence spectroscopy (Figure 2C) ([Hopkins et al., 2011]). […]

[2] = SDS-PAGE oligomerization of purified Hfq variants; format: physicochemical, E. coli; settings: 4–20% SDS-PAGE, ~2.8 µg protein, 2% SDS, boiled
Protocol: as §1, with “variants. WT Hfq assembles into hexamers and dodecamers that are stable to SDS-PAGE, which can be used to evaluate the oligomerization of Hfq variants. Purified Hfq protein (~2.8 µg) was separated on a 4–20% SDS-PAGE gel and stained with Coomassie blue (lanes 2–6). Samples were prepared in 2% SDS and boiled before loading. Lane 1, Protein standards (10 µL All Blue Precision Plus, […]).” for “variants.”

Substance	observed annealing rate of Hfq65 rim mutants ([1]; 50 nM molecular beacon, 100 nM Target, Hfq65 variants, TNK buffer)	activity in single-turnover annealing assays ([1]; 50 nM beacon, 100 nM Target RNA, 0–200 nM Hfq hexamer)	oligomeric state on SDS-PAGE [2]
Hfq65-R16A	most diminished		
Hfq65: truncated E. coli Hfq variant lacking the CTD		highly active	form hexamers with slightly different stabilities
Hfq102: full-length E. coli Hfq			migrates as a dodecamer (red dot) and monomer (green dot) with no visible hexamer band
